Assay results published in US20220411504A1.

Molecular target: Human CD3 epsilon (CD3ε) of the T cell receptor complex on cells (human) (UniProt P07766)
Assay: flow cytometry on Jurkat cells, 10 nM antibody

Sequence of Human CD3 epsilon (CD3ε) of the T cell receptor complex on cells (human) (P07766 23-207 limits assumed, one chain of several): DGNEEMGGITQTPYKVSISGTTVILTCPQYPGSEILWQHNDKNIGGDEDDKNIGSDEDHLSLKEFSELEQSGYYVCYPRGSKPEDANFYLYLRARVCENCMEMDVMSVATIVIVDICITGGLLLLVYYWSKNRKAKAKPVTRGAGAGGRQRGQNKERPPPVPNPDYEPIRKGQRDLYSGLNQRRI

In the case of UCHT1 (antibody), the MFI (arbitrary units) is reported as 89200.
